Laboratory results published in publication PMC11589570, “Critical assessment of LC3/GABARAP ligands used for degrader development and ligandability of LC3/GABARAP binding pockets” (Nature Communications, 2024).

Target: 1_(1-117) (human), Q9H0R8
Assay: FP
Settings: modification not given

Sequence of 1_(1-117) (human), Q9H0R8 (Q9H0R8 whole entry): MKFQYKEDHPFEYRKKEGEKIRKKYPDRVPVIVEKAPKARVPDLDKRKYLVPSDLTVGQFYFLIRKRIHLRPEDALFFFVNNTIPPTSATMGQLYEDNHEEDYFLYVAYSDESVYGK

Question: Which Ki does the source give for AGLNSSWVELPMNSS [NIX-P2-LIR] here?
Answer: 3.7 µM

Question: Which Ki does the source give for SDNSSGGDDDWTHLSSK [p62-LIR] here?
Answer: 5.5 µM

Question: LNSGVEYYWDQLNETV [AMBRA1-LIR] was tested. Which Ki did it give?
Answer: 163 µM
